B1: PRPH (parent)
chain: RTFGPPPSLSPGAFSYSSSSRFSS
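Note: lentivirally expressed fusions sorted by FACS into six bins by GFP to DsRed ratio, PSI derived from sequencing read proportions per bin multiplied by bin number.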

The data set covers variants of B1. As to the kind of experiment: protein stability index of a GFP-peptide fusion (GPS, HEK-293T) (PSI 1-6); higher = more stable. The following applies: c terminus: a fixed tail appended.
Regarding RTFGPPPSLSPGAFSYSSSSRESS, the protein stability index was determined as 4.03.
As for RTFGPPPSLSPGAFSYSSSSRCSS, the protein stability index turned out to be 3.82.
Next, RTFGPPPSLSPGAFSYSSSSRDSS: 3.94; RTFGPPPSLSPGAFSYSSSSRHSS: 3.55; RTFGPPPSLSPGAFSYSSSSRASS: 3.4.
Regarding RTFGPPPSLSPGAFSYSSSSRGSS, the protein stability index was found to be 4.16.
The value for RTFGPPPSLSPGAFSYSGSSRFSS was 3.38; that for RTFGPPPSLSPGAFSYSHSSRFSS was 2.8; that for RTFGPPPSLSPGAFSYSKSSRFSS was 3.9.
The value for RTFGPPPSLSPGAFSYSTSSRFSS was 3.25; that for RTFGPPPSLSPGAFSYSCSSRFSS was 3.5.
Next, RTFGPPPSLSPGAFSYSMSSRFSS: 2.75; RTFGPPPSLSPGAFSYSISSRFSS: 2.66.
In the case of RTFGPPPSLSPGAFSYSFSSRFSS, the protein stability index was determined as 2.45.
RTFGPPPSLSPGAFSYSPSSRFSS: the protein stability index is 2.93.
The value for RTFGPPPSLSPGAFSYSQSSRFSS was 3.5; that for RTFGPPPSLSPGAFSYSVSSRFSS was 3.24.
The value for RTFGPPPSLSPGAFSYSWSSRFSS was 2.77.
Next, RTFGPPPSLSPGAFSYSASSRFSS: 2.76; RTFGPPPSLSPGAFSYSLSSRFSS: 2.59.
In the case of RTFGPPPSLSPGAFSYSYSSRFSS, the protein stability index stood at 2.98.
As for RTFGPPPSLSPGAFSYSESSRFSS, the protein stability index amounted to 3.57.
As to RTFGPPPSLSPGAFSYSRSSRFSS, the protein stability index came out at 3.38.
The value for RTFGPPPSLSPGAFSYSNSSRFSS was 3.22; that for RTFGPPPSLSPGAFSYSDSSRFSS was 2.94; that for RTFGPPPSLSPGAFSYSSYSRFSS was 2.38.
The value for RTFGPPPSLSPGAFSYSSMSRFSS was 2.26.
With RTFGPPPSLSPGAFSYSSTSRFSS, the protein stability index worked out at 3.23.
Next, RTFGPPPSLSPGAFSYSSFSRFSS: 2.38; RTFGPPPSLSPGAFSYSSASRFSS: 3.08; RTFGPPPSLSPGAFSYSSISRFSS: 2.45.
The value for RTFGPPPSLSPGAFSYSSNSRFSS was 3.46.
As to RTFGPPPSLSPGAFSYSSWSRFSS, the protein stability index is 2.19.
Next, RTFGPPPSLSPGAFSYSSKSRFSS: 3.7.
As for RTFGPPPSLSPGAFSYSSPSRFSS, the protein stability index came to 3.12.
Next, RTFGPPPSLSPGAFSYSSRSRFSS: 3.5; RTFGPPPSLSPGAFSYSSVSRFSS: 3.63.
On to RTFGPPPSLSPGAFSYSSCSRFSS, for which the protein stability index was determined as 2.66.
As for RTFGPPPSLSPGAFSYSSHSRFSS, the protein stability index was determined as 2.81.
Next, RTFGPPPSLSPGAFSYSSESRFSS: 3.55.
The value for RTFGPPPSLSPGAFSYSSGSRFSS was 3.46; that for RTFGPPPSLSPGAFSYSSLSRFSS was 2.93.
The value for RTFGPPPSLSPGAFSYSSQSRFSS was 2.66.
In the case of RTFGPPPSLSPGAFSYTSSSRFSS, the protein stability index turned out to be 3.19.
Next, RTFGPPPSLSPGAFSYNSSSRFSS: 3.71.
Next, RTFGPPPSLSPGAFSYHSSSRFSS: 2.54; RTFGPPPSLSPGAFSYFSSSRFSS: 2.37; RTFGPPPSLSPGAFSYLSSSRFSS: 2.53.
RTFGPPPSLSPGAFSYQSSSRFSS: the protein stability index is 3.1.
Consider RTFGPPPSLSPGAFSYYSSSRFSS, for which the protein stability index worked out at 3.07.
For the variant RTFGPPPSLSPGAFSYRSSSRFSS, the protein stability index was 2.99.
Next, RTFGPPPSLSPGAFSYPSSSRFSS: 3.16; RTFGPPPSLSPGAFSYKSSSRFSS: 3.04; RTFGPPPSLSPGAFSYISSSRFSS: 2.55.
Next, RTFGPPPSLSPGAFSYVSSSRFSS: 2.75; RTFGPPPSLSPGAFSYWSSSRFSS: 2.27; RTFGPPPSLSPGAFSYSSSSGFSS: 2.85.
The value for RTFGPPPSLSPGAFSYSSSSAFSS was 2.46; that for RTFGPPPSLSPGAFSYSSSSYFSS was 2.08.
In the case of RTFGPPPSLSPGAFSYSSSSFFSS, the protein stability index is 2.25.
The value for RTFGPPPSLSPGAFSYSSSSMFSS was 2.8; that for RTFGPPPSLSPGAFSYSSSSWFSS was 1.75.
As for RTFGPPPSLSPGAFSYSSSSLFSS, the protein stability index is 2.56.
In the case of RTFGPPPSLSPGAFSYSSSSPFSS, the protein stability index is 3.25.
Next, RTFGPPPSLSPGAFSYSSSSSFSS: 3.02; RTFGPPPSLSPGAFSYSSSSQFSS: 3.23.
On to RTFGPPPSLSPGAFSYSSSSVFSS, for which the protein stability index came out at 3.1.
RTFGPPPSLSPGAFSYSSSSDFSS: the protein stability index came out at 3.3.
Next, RTFGPPPSLSPGAFSYSSSSCFSS: 3.19; RTFGPPPSLSPGAFSYSSSSTFSS: 3.18.
Next, RTFGPPPSLSPGAFSYSSSSIFSS: 2.44; RTFGPPPSLSPGAFSYSSSSKFSS: 3.5; RTFGPPPSLSPGAFSYSSSSHFSS: 3.48.
The value for RTFGPPPSLSPGAFSYSSSSEFSS was 3.22.
Regarding RTFGPPPSLSPGAFSYSSSSNFSS, the protein stability index worked out at 3.03.
Next, RTFGPPPSLSPGAFSYSSSDRFSS: 3.23.
The value for RTFGPPPSLSPGAFSYSSSNRFSS was 3.31; that for RTFGPPPSLSPGAFSYSSSPRFSS was 3.45; that for RTFGPPPSLSPGAFSYSSSKRFSS was 3.81.
Next, RTFGPPPSLSPGAFSYSSSYRFSS: 2.74; RTFGPPPSLSPGAFSYSSSERFSS: 2.76.
For the variant RTFGPPPSLSPGAFSYSSSCRFSS, the protein stability index is 2.33.
In the case of RTFGPPPSLSPGAFSYSSSMRFSS, the protein stability index is 3.05.
Next, RTFGPPPSLSPGAFSYSSSFRFSS: 2.35; RTFGPPPSLSPGAFSYSSSTRFSS: 2.94; RTFGPPPSLSPGAFSYSSSHRFSS: 2.96.
Take RTFGPPPSLSPGAFSYSSSLRFSS: the protein stability index was 2.48.
On to RTFGPPPSLSPGAFSYSSSGRFSS, for which the protein stability index is 2.99.
As for RTFGPPPSLSPGAFSYSSSIRFSS, the protein stability index was 2.43.
The value for RTFGPPPSLSPGAFSYSSSVRFSS was 2.86.
Next, RTFGPPPSLSPGAFSYSSSARFSS: 3.71; RTFGPPPSLSPGAFSYSSSRRFSS: 3.41; RTFGPPPSLSPGAFSYSSSWRFSS: 2.09.
The value for RTFGPPPSLSPGAFSYSSSQRFSS was 3.57.

The values are drawn from the supplement of paper PMC10567573.
